Experimental data reported in PMC3143144.

Legend:
[1] = target: αE2 (isolated E2 DNA-recognition helix peptide) (Human papillomavirus type 16?) (UniProt P06790); assay: EMSA
[2] = target: αE2 (isolated E2 DNA-recognition helix peptide) (Human papillomavirus type 16?) (UniProt P06790); assay: DNA melting

Sequence of UniProt P06790 (P06790 whole entry): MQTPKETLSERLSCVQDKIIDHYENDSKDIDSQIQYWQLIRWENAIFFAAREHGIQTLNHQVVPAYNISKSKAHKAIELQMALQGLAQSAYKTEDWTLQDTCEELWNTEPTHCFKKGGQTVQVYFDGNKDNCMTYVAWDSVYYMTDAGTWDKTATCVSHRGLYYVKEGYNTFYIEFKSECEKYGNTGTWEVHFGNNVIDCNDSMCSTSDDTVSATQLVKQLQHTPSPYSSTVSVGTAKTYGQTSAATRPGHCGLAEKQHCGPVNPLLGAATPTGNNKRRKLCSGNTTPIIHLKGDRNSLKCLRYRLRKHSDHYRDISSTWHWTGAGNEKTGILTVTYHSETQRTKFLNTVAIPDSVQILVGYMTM

Sequence | Kd [1] [µM] | binding signal [2]
GTAGCACAAATCGGTTGA (double strand) [hemisite E2-Dst] | 6.3 | 2 C (ΔTm)
ACATGGACCTGTCAAGTA (double strand) [Iset non E2-non Dst] | 50 | 
